Assay results from the DeepSol protein solubility set.

test: soluble on expression in E. coli; label from the status in PepcDB or PDB records

| Sequence | soluble on expression in E. coli |
| --- | --- |
| MTELARLKFYATQPHSCSYLPDEQATTLFLDPSQPMDVHVYADLSEMGFRRSGDHLYRPHCQNCNACVPARIPATQFLPSRQQKRIIKRNSDLTVHAAKPCFSEEYFDLYQRYIEQRHADGDMFPPSRDQFSTFLVRDLPFSRFYEFRLDGRLLAVAVTDLLPNGLSAVYTFYEPDEERRSLGRFAILWQIGETLRLGLDAVYLGYWIKNCKKMNYKTQYRPIELLVNQRWVILNLEHHHHHH | not soluble |
| AIAEAKTLGIATPRKPVLSVSARKLKDNAADWHNLILKWDSLSDKGFTTASSIANLKVSLLSKEKVELESSSPASMEEEEKTNLDYDKGLEALCEELQAILDGLTKIQMKMEKLSSTTKGICELENYHYREESSRPPLFHTWPTAFFYEVSRRLSEAYKKELLLKHTIGAELAHTADRNLSLTYLSMWLHQPYIESNSKLQLESMLLETGHRAL | soluble |
| MGSDKIHHHHHHMNFREEFKLLLRARYPLIYIPTYEEERVEAAIREEATNQGNRPVYTWDFVDGYQGNPNDVGFGRRNPLQALEFIEKLPASAPAVLILRDYHRFLDDVAIARKLRNLSRLLKSQPKNIVLLSPRIAIPDDLTEVLTVVEFPLPAAAEIKTEVERLLQSTGNSLSGKVLDDLVLSCQGLSMERIRRVLAKAIATHGELQPEDVDLVLEEKRQTIRQTQILDFYPATEQISDIGGLDNLKDWLIRRGGSFTDKARQYGLPHPRGLMLVGIQGTGKSLTAKAIAHHWHLPLLRLDVGRLFGGLVGESESRTRQMIQVAEALAPCILWIDEIDKAFAGLGSKGDAGTASRVFGTFINWLAEKSSPVFVVATANDIQALPPEMLRKGRFDEIFFVGLPTQEERKAIYDVHLSRLRPHNLKSYDIERLAYETPDFSGAEIEQTLIEAMHIGFSQNRDFATDDILEAASQIVPLARTAVEQIQQLQEWAAAGRARLASKHNPLSERLRRTT | not soluble |
| MKKILFICLGNICRSPMAEFIMKDLVKKANLEKEFFINSAGTSGEHDGEGMHYGTKNKLAQLNIEHKNFTSKKLTQKLCDESDFLITMDNSNFKNVLKNFTNTQNKVLKITDFSPSLNYDEVPDPWYSGNFDETYKILSLACKNLLVFLSKHHHHH | soluble |
| MLAKRIIPCLDVDKGRVVKGVKFLNLRDAGDPVEVAKRYEEEGADELVFLDITASAEDREIMIDVVKKVAETVFMPFTVGGGIRSLEDMRRLLEAGADKISINTAAVKNPNLIYEGAKRFGSQCIVVAIDAKRKGNSWEVYIHGGRTPTGLDAVEWAKKVESLGAGEILLTSMDRDGTKDGYDIELNRAISEAVNIPVIASGGAGKKEHFYEVFSKTKVEAALAASVFHFREISIPELKEYLLERGINVRPLD | soluble |
| MGSDKIHHHHHHMDNKEKEDEELSDELKDQPGPSEKPRTPTVVAFTKPSFYRVNTVISDVKVCRSMSYDMCGNHQQELLFDLYKDETTGKVYLPRFFKALLESGIRKDDPRIDKMIQNIKDADLLDDFVWGTQHIYLEKDTFKRYIGSSIGVVTKALKKQMIIPDWERFVSDMGEIFEDVRSHNEGDLATYIPQLSRVAPDSWAMSVCTIDGQRKMWGDALKPFCLQSVSKPFTYALVHDDIGPEELHAHVGQEPSGRLFNDISLDHNKKPHNPLINAGAIVVASLLKNKLPLADRFDFMIHACRKFVGSGYIGFDNSVFLSERETADRNYALSYYMREHKVFPKDLNLQDTLDLYFQICSIETNCDSLAVMAATLANGGVNPMNGERIVNNRACRDTLSLMYSCGMYDWSGQFAFHVGLPAKSGVSGDMIIVIPNVMGIALYSPRLDKLGNTVRGVKFAEQLVQKYNFHNYDSLIYSDNKKIDPRRQLKDDHDGQNRFMYATKLGDIAAIKRFLLMGHDIHCKDYDDRTVLHVAAAEGDVVTLEYVLSKWQEDPNPCDRYDRTPLDDAKHFNHTACVKLLEEAITVYNLKGQDD | not soluble |
| MKHLPQLEGVSVGLEGEAVSLFWGEIKEEERQEIYECAKALVPWRKGPFWVGDFLIDSEWVSAKKYALLEPHFDLCNKDVADIGCNNGYYMFRMWGQKPKSLTGFDPSPLCRTQFDFINHFIQAPIRFELLGVEHLEGYGKLFDVIFCLGVLYHRSDPIQTLKSLYKGLAKGGELLLDTLMIEGEEEVALTPKDRYAKMSNVYFIPTFKALSHWLHRAGFERVEKLEIAKTGLDEQRKTEWINSQSLEDFLDPCSHDRTIEGYPAPRRIYVKAYKGA | not soluble |
